Assay results published in patent US20240175877A1.

Biological target: Ara h 2 (peanut) (UniProt Q6PSU2)
Assay: SPR, Biacore 3000

Ara h 2 (peanut), sequence (Q6PSU2 23-172): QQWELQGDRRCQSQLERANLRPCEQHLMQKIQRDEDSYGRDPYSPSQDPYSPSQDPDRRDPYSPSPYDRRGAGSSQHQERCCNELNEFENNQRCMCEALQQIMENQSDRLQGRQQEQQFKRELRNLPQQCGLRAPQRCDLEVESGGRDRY

B1: 13BU2T1 (antibody, IgG1, V domains shown)
VH: VESGGGVVQPGASLRLSCVASGFTFRDYSMHWVRQAPGKGLEWMSFIRFDGTTKDYRESVKGRFIISRDDSKNTLYLQMTSLRPEDTARYYCVKDNGWRAFDHWGQGALVIVSS
VL: EIVMTQSPLSLPVTPGEAASISCRSSQSLLHRNGYIYLDWYLQRPGQSPQLLISFVSKRASGAPDRFSGSGSGTDFTLTISRVEAEDFGVYFCMQSLENPWTFGP
**Q.** For B1, which Kd is on record?
**A.** 4.85 nM
